The values below come from PMC3326535.

In test [1] the target is Human quinolinate phosphoribosyltransferase (hQPRTase) (human) (UniProt Q15274). Nature of the test: SEC.
Test [2] shares this target. The test can be described thus: crystal structure.

Regarding “Human quinolinate phosphoribosyltransferase (hQPRTase) (from UniProt Q15274 1-297) (enzyme)”, the stoichiometry N in test [1] and in test [2] was 6 in each case.

Usually stoichiometry N stands for the number of molecules, sites or subunits per partner or assembly.
